Measured values: patent US20250361297A1, “ANTI- SIGLEC-15 BINDING MOLECULES AND METHODS OF USE” (ADAPTAM THERAPEUTICS, S.L., priority 2024, published 2025)

T1: recombinant human Siglec-15 protein (Homo sapiens, UniProt Q6ZMC9)
T1 construct: purchased Bonopusbio CW70-50 ug
T1 sequence (Q6ZMC9 20-263 limits assumed): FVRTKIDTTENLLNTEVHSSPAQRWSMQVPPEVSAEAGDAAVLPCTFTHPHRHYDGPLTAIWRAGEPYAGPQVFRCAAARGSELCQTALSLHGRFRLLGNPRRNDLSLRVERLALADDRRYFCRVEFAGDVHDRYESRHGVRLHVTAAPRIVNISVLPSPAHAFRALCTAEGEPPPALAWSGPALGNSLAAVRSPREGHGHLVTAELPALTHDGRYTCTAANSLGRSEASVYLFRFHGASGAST

T2: THP-1 cells overexpressing human Siglec-15 (Homo sapiens, UniProt Q6ZMC9)
T2 construct: Human full-length Siglec-15 and CD19 genes were synthesized and cloned into the pLV-MSCV lentiviral vector; His; expressed in transfected cells; host or cells: THP-1 (lentiviral overexpression, 'THP-1 S15 OE')
T2 sequence (Q6ZMC9 20-328): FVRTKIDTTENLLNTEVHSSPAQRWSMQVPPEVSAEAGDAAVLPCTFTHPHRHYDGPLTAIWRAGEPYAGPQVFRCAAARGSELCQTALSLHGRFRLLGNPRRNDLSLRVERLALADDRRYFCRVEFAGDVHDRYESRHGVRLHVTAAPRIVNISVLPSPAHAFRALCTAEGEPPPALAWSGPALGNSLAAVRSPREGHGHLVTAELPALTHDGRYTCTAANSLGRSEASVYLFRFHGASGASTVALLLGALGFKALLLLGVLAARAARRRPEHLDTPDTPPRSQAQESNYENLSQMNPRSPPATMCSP

B1: S15B1-VH1 + VL2: humanized S15B1 antibody, humanized VH1 (SEQ ID NO: 103) with humanized VL2 (antibody, V domains shown)
VH: QVQLVQSGAEVKKPGASVKVSCKASGYAFSSSWMNWVRQAPGQGLEWIGRIYPGHGETNYNGKFKDRVTMTADTSTSTVYMELSSLRSEDTAVYFCARVDNSDPYYFDYWGQGTTVTVSS
VL: DIVLTQSPASLAVSPGQRATITCRASKSVSTSGYSYMHWYQQKPGQPPKLLIYLASNLESGVPARFSGSGSGTDFTLTINPVEAEDTATYYCQHGRELPFTFGGGTKLEIK
B2: S15B1-VH4 + VL2: humanized S15B1 antibody, humanized VH4 with humanized VL2 (antibody, V domains shown)
VH: QVQLVQSGAEVKKPGASVKVSCKASGYAFSSSWMNWVKQAPGQGLEWIGRIYPGHGETNYNGKFKDRATMTADKSTSTVYMELSSLRSEDTAVYFCARVDNSDPYYFDYWGQGTTVTVSS
VL: DIVLTQSPASLAVSPGQRATITCRASKSVSTSGYSYMHWYQQKPGQPPKLLIYLASNLESGVPARFSGSGSGTDFTLTINPVEAEDTATYYCQHGRELPFTFGGGTKLEIK
B3: S15B1-VH2 + VL2: humanized S15B1 antibody, humanized VH2 with humanized VL2 (antibody, V domains shown)
VH: QVQLVQSGAEVKKPGASVKVSCKASGYAFSSSWMNWVRQAPGQGLEWIGRIYPGHGETNYNGKFKDRVTMTADTSTSTVYMELSSLRSEDTAVYFCARVDNSDPYYFDYWGQGTTVTVSS
VL: DIVLTQSPASLAVSPGQRATITCRASKSVSTSGYSYMHWYQQKPGQPPKLLIYLASNLESGVPARFSGSGSGTDFTLTINPVEAEDTATYYCQHGRELPFTFGGGTKLEIK
B4: S15B1-VH1 + VL1: humanized S15B1 antibody, humanized VH1 (SEQ ID NO: 103) with humanized VL1 (antibody, V domains shown)
VH: QVQLVQSGAEVKKPGASVKVSCKASGYAFSSSWMNWVRQAPGQGLEWIGRIYPGHGETNYNGKFKDRVTMTADTSTSTVYMELSSLRSEDTAVYFCARVDNSDPYYFDYWGQGTTVTVSS
VL: DIVLTQSPASLAVSPGQRATITCRASKSVSTSGYSYMHWYQQKPGQPPKLLIYLASNLESGVPARFSGSGSGTDFTLTINPVEAEDTANYYCQHGRELPFTFGGGTKLEIK
B5: S15B1-VH3 + VL1: humanized S15B1 antibody, humanized VH3 with humanized VL1 (antibody, V domains shown)
VH: QVQLVQSGAEVKKPGASVKVSCKASGYAFSSSWMNWVKQAPGQGLEWIGRIYPGHGETNYNGKFKDRATMTADTSTSTVYMELSSLRSEDTAVYFCARVDNSDPYYFDYWGQGTTVTVSS
VL: DIVLTQSPASLAVSPGQRATITCRASKSVSTSGYSYMHWYQQKPGQPPKLLIYLASNLESGVPARFSGSGSGTDFTLTINPVEAEDTANYYCQHGRELPFTFGGGTKLEIK
B6: S15B1-VH4 + VL1: humanized S15B1 antibody, humanized VH4 with humanized VL1 (antibody, V domains shown)
VH: QVQLVQSGAEVKKPGASVKVSCKASGYAFSSSWMNWVKQAPGQGLEWIGRIYPGHGETNYNGKFKDRATMTADKSTSTVYMELSSLRSEDTAVYFCARVDNSDPYYFDYWGQGTTVTVSS
VL: DIVLTQSPASLAVSPGQRATITCRASKSVSTSGYSYMHWYQQKPGQPPKLLIYLASNLESGVPARFSGSGSGTDFTLTINPVEAEDTANYYCQHGRELPFTFGGGTKLEIK
B7: S15B1-VH2 + VL1: humanized S15B1 antibody, humanized VH2 with humanized VL1 (antibody, V domains shown)
VH: QVQLVQSGAEVKKPGASVKVSCKASGYAFSSSWMNWVRQAPGQGLEWIGRIYPGHGETNYNGKFKDRVTMTADTSTSTVYMELSSLRSEDTAVYFCARVDNSDPYYFDYWGQGTTVTVSS
VL: DIVLTQSPASLAVSPGQRATITCRASKSVSTSGYSYMHWYQQKPGQPPKLLIYLASNLESGVPARFSGSGSGTDFTLTINPVEAEDTANYYCQHGRELPFTFGGGTKLEIK
B8: S15B1-VH3 + VL2: humanized S15B1 antibody, humanized VH3 with humanized VL2 (antibody, V domains shown)
VH: QVQLVQSGAEVKKPGASVKVSCKASGYAFSSSWMNWVKQAPGQGLEWIGRIYPGHGETNYNGKFKDRATMTADTSTSTVYMELSSLRSEDTAVYFCARVDNSDPYYFDYWGQGTTVTVSS
VL: DIVLTQSPASLAVSPGQRATITCRASKSVSTSGYSYMHWYQQKPGQPPKLLIYLASNLESGVPARFSGSGSGTDFTLTINPVEAEDTATYYCQHGRELPFTFGGGTKLEIK
B9: ZLA-1243-E01-MMAE (conjugate)
VH: QVQLVQSGGGLVQPGRSLRLSCAASGFTFDDYAMHWVRQAPGKGLEWVSGISWNSGSIGYADSVKGRFTISRDNAKNSLYLQMNSLRAEDTALYYCAKGLWPSYDLDAFDIWGQGTMVTVSS
VL: QSALTQPASVSGSPGQSITLSCTGTSSDVGAYNFVSWYQQHPGTAPKLMIYEVSNRPSGVSDRFSGSKSGNTASLTISGLQAEDEADYYCSSYTSTIPPFVFGTGTKVTVL

molecular target: T1, recombinant human Siglec-15 protein; test: BIACORE surface plasmon resonance binding affinity; details: SPR; antibody as ligand, human Siglec-15 as analyte; 1:1 Langmuir model
Description: Binding affinity determination of anti-Siglec-15 monoclonal antibodies using BIACORE surface plasmon resonance: The purified anti-Siglec-15 monoclonal antibodies (mAbs) were characterized for binding affinity and binding kinetics by Biacore T200 system (GE healthcare, Pittsburgh, PA, USA). Anti-Siglec-15 antibodies were covalently linked to a CM5 chip (carboxy methyl dextran coated chip, GE healthcare, Cat #BR-1005-30) via primary amines, using a standard amine coupling kit provided by Biacore (GE healthcare, Pittsburgh, PA, USA). Un-reacted moieties on the biosensor surface were blocked with ethanolamine. Then, serially diluted recombinant human Siglec-15-his protein (Bonopusbio, CW70-50 ug), 2-fold serial dilution in HBS-EP buffer starting at 80 nM, were respectively flown onto the chip at a flow rate of […]. The antigen-antibody association kinetics was followed for 2 minutes, and the dissociation kinetics was followed for 10 minutes. The association and dissociation curves were fit to a 1:1 Langmuir binding model using BIAcore evaluation software. The dissociation rate (kd) and association constant (ka) rate constants were obtained using Evaluation Software. The equilibrium dissociation constant (KD) was calculated from the ratio of kd over ka.

First: B1
Second: B2
The “ka” value of the first is 2.1-fold higher: 3.54e+06 M⁻¹ s⁻¹ for the first, 1.69e+06 M⁻¹ s⁻¹ for the second.

B3 and B4 are within 1.5-fold of each other in “ka” value: 3.44e+06 M⁻¹ s⁻¹ for the first, 3.35e+06 M⁻¹ s⁻¹ for the second.

B5 and B6 are within 1.5-fold of each other in “ka” value: 3.73e+06 M⁻¹ s⁻¹ for the first, 4.1e+06 M⁻¹ s⁻¹ for the second.

B7 and B8 are within 1.5-fold of each other in “ka” value: 3.8e+06 M⁻¹ s⁻¹ for the first, 4.49e+06 M⁻¹ s⁻¹ for the second.

Going from B1 to B2, the “kd” value falls from 0.000563 s⁻¹ to 0.000234 s⁻¹ (2.4-fold).

B3 and B4 are within 1.5-fold of each other in “kd” value: 0.000326 s⁻¹ for the first, 0.000455 s⁻¹ for the second.

B5 and B6 are within 1.5-fold of each other in “kd” value: 0.000257 s⁻¹ for the first, 0.000385 s⁻¹ for the second.

Going from B7 to B8, the “kd” value falls from 0.000473 s⁻¹ to 0.000293 s⁻¹ (1.6-fold).

molecular target: T2, THP-1 cells overexpressing human Siglec-15; test: Binding of anti-Siglec-15 ADCs to THP-1 S15+ cells (flow cytometry); details: relative to Trastuzumab-based ADC negative control
Procedure: Binding of anti-Siglec-15 ADCs to THP-1 S15+ cells: 50,000 cells/well of THP-1 S15 OE cells were added to a round bottom 96 well plate, centrifuged at 450×G for 5 minutes and the supernatant discarded. Human anti-siglec-15 IgG ADCs were prepared (starting at 198 nM, 3-fold serial dilution in staining buffer) and the cells were resuspended in 100 μl of ADC. Cells were incubated for 40 minutes on ice and 100 μl of staining buffer were added to each well, followed by centrifugation at 450×G for 5 minutes and supernatants were discarded. The secondary antibody was prepared (anti-human IgG-PE at 1:500 dilution) and added 100 μl to each well. Cells were incubated for 40 minutes on ice and 100 μl of staining buffer were added to each well followed by centrifugation at 450× G for 5 minutes to then discard the supernatant. Cells were resuspended in 150 μl of staining buffer and acquired in a flow cytometer.

B9 was tested, and the “binding capacity to THP-1 cells overexpressing human Siglec-15” value was “increased binding capacity”.
